Source: the DeepSol protein solubility set

assay: soluble on expression in E. coli; label from the status in PepcDB or PDB records

Sequence | soluble on expression in E. coli
MTESVARLRGEQLTLGYGKYTVAENLTVEIPDGHFTAIIGPNGCGKSTLLRTLSRLMTPAHGHVWLDGEHIQHYASKEVARRIGLLAQNATTLGDITVQELVARGRYPHQPLFTRWRKEDEEAVTKAMQATGITHLADQSVDTLSGGQRQRAWIAMVLAQETAIMLLDEPTTWLDISHQIDLLELLSELNREKGYTLAAVLHDLNQACRYASHLIALREGKIVAQGAPKEIVTAELIERIYGLRCMIIDDPVAGTPLVVPLGRTAPSTANS | not soluble
MKDRYLIIDGYNMIGQSQELSRIAQDNLEEAREQLLIAIANYNAVIADEVVCVFDAYEQSGAPTEYMYHGVKTIFTKEKETADSYIERYVYDLYDKHTRHITVVTSDMSEQHAIFGAGAYRVSSREMWRDLRENEISVSKKLDGFNEQKPRTRIELSNEILEEFEKLRRGDNHLEHHHHHH | not soluble
MAHHHHHHMSKDGNCGGCSAPWGKMPQSPMTPLSDARDSPTAPLCSHSAFSKVNKESSEEESFVVGKYQTSMCPICLESFTHENPAVVVGCGHSFHLQCVEDWRQRSPICPVCMIVLRGDGLPMHTGRQSQRPSEVSPSQRKGRATTSTMTSASSGTTFMVTAGGVHGRVLDTKPPSVVNASAGVEGSGSVVDVGNVSFLSRVRRCMKFCCTCEDDL | not soluble
MTLLRTTLLSSLLATVVLGASAAPRTEVIPLNYRTADDVMAVAQSVIGSEGKVTAYGNQLIVNAEPAKIRELQSVLQQIDSRPHRLLITVDTSENLQQDSRGYSVDGSASAGNIEIQSGRGEVNGKDRVRIIRRSTDSRSGGSQQVQATEGYPALIQVGQSVPITSTATGPYGQIYSQTEYRNVNRGFYVTATLTGNLVHVTISSSNDRLSQSHPGVIDTQSTDTRVSGKLGEWITLGGVSEQNQADQRGFVRRYSTQGRDDTSLRLKVETLDLEHHHHHH | not soluble
MNSRQQSILQMVVDKGQMSVAELAKITGVSEVTIRQDLNTLEKQSYLRRAHGFAVSLESDDVETRMMTNYTLKRRLAEFAASLVSPGESVFIENGSSNALLARTLAEQKDVTIITVSSYIAHLLKETPCEVILLGGIYQKKSESMVGPLTRQFIHQVHFSKAFIGIDGWQADTGFTGRDMMRSDVVNAVLEKGSEAIVLTDSSKFGCVHPYPLGPLSRFHRVITDSKISASDQMQLEHAGLLVNVIGSSVLEHHHHHH | soluble
MTSACGFHLRGDYLLPDEVHEISLTSFDQYSSLTRDVQKQLRMNGIRQVAPTTVTPSLDLISESLNERTLSLYQNSRAAEKELTYNVSYSVLIPGHDLKTYTTTVNRNYLDNPLTALAKSVERDMIEEEMRAQAAEQILRQMARLKADDAPVETSDVITHDDETESKVTTKEVIKSMSTTAETTQLEHHHHHH | soluble
MHQVYVDIIVDAIIEQYQTEENFYSAYQIQAADWQAWKEGQFGLDNEVMQKIKNLFTDYEWMLTQKILRQTILFPEKRNLAVSEYKRLKTTIAKKWLQSDLGVVELIPNNKQEQEIAAGYIDLKVTLAYGEWGFDDIITFRLPATIQRQLEGSKVELLDWVNENLMDTYVGE | not soluble
MTTPNTQLWEVFIRSRNGLAHKHVGSLHAADATLALQAARDIYTRRGEGLSIWVVPSNAITASDPAEAGMLFEPAESKIYRHPTFYEVPDEVGHM | not soluble
MAHHHHHHMHQLRTFNYVASELGHDEPVLHAVFVTHRCLPPDPPEVNFTTAIPQTVTAASRRTSSDDASIGAAVHVEKTVVLSVEDTLAAPLEVALTVEQELAQLSKKLDAWKVQRLADLQARGGERSPSRLAQMEAAMERRLALRRIEEQDRAQKRVDALLSYLGPRIDKQLQLVAREHDGEEALSSSYARVETTSDVKDSACADKSAASAATPSPPSPRARILCDQQYFVKRQEIALEERGARQAVLRNMWDARRLAHLVEDEVSFRHSIEAREVVWRDRVHSELRASVEMDHV | not soluble
MIGIVMLSKIANIDAARQGLDLKVKVLSLNKKTIKNDRGETTYFYGIIGDDTGTVSFTAWSFPAAVKSGDVVEIKNCYSSLYNGKIRIYVDSRSQVVLKPDEYLEVKRTVELVKLRDLSLTTPYVSVIGRISGIKEKNYDSDRGSKIVYQGFIEDETAKVRISSFGKPLKDGEIVRVENARVSQYNGYMGISIGENSSIDNVQAQIEVGSRPIFIAEIKSPIGGVTITGFAVSVGQGSRIFTKCSICKKILEDGKCKDHPRAPVYLDIFGYFLLSDGTGSLTCYLNKDSFLPYIKMDTEEFKSQAFSMNPNMLIKKNILGKCLSVTGDLRLRDDKITMNASSIKEADADSVKDIEKTIQEEFQLEHHHHHH | not soluble
